Laboratory results from the Human Domainome abundance scans (Beltran et al. 2025).
± gives the uncertainty stated by the source.

B1: E3 ubiquitin-protein ligase NEDD4-like, residues 539 to 589; numbered along this chain, Q96PU5 (parent)
chain: KTSLNPNDLGPLPPGWEERIHLDGRTFYIDHNSKITQWEDPRLQNPAITGP
B2: Glucocorticoid receptor, residues 419 to 494; numbered along this chain, P04150 (parent)
chain: KLCLVCSDEASGCHYGVLTCGSCKVFFKRAVEGQHNYLCAGRNDCIIDKIRRKNCPACRYRKCLQAGMNLEARKTK

Variants of: B1
Experiment: abundance fitness (aPCA) (normalised: wild type 0, dead -1); higher = more abundant; growth selection in yeast, the domain comes from the species named
Details: Homo sapiens

Abundance fitness of substitutions, site by site:
G50: T 0.166 ± 0.17 | L 0.118 ± 0.08 | Y -0.202 ± 0.17 | C -0.329 ± 0.12 | A 0.012 ± 0.067 | D 0.029 ± 0.076 | H -0.555 ± 0.31 | W -0.143 ± 0.1 | K 0.305 ± 0.45 | P -0.213 ± 0.17 | M -0.284 ± 0.39 | R -0.18 ± 0.055 | S -0.153 ± 0.093 | V -0.064 ± 0.1 | E 0.223 ± 0.14 | Q -0.351 ± 0.2
P51: E -0.109 ± 0.45 | S -0.336 ± 0.12 | V -0.65 ± 0.45 | G 0.13 ± 0.21 | T 0.009 ± 0.18 | R -0.345 ± 0.25 | C -0.232 ± 0.098
I48: T 0.051 ± 0.21 | V 0.132 ± 0.31 | Q 1.1 ± 0.46 | L -0.123 ± 0.47 | G 0.025 ± 0.054 | F -0.306 ± 0.43 | M -0.176 ± 0.21
T49: R -0.042 ± 0.044 | K -0.267 ± 0.095 | Y -0.286 ± 0.093 | A -0.121 ± 0.059 | M -0.091 ± 0.055 | N -0.313 ± 0.13 | I -0.226 ± 0.12 | D -0.086 ± 0.1 | Q -0.199 ± 0.092 | E -0.144 ± 0.091 | P -0.135 ± 0.071 | F -0.165 ± 0.068 | V -0.198 ± 0.061 | W -0.213 ± 0.063 | L -0.104 ± 0.052 | H -0.089 ± 0.11 | G -0.045 ± 0.054 | S -0.077 ± 0.069
A47: S -0.04 ± 0.068 | G 0.01 ± 0.045 | H 0.235 ± 0.12 | F -0.204 ± 0.07 | T -0.056 ± 0.065 | R 0.004 ± 0.053 | W -0.296 ± 0.055 | C -0.049 ± 0.074 | I -0.167 ± 0.083 | Q 0.193 ± 0.083 | L -0.083 ± 0.045 | N 0.011 ± 0.11 | K -0.204 ± 0.097 | E -0.002 ± 0.068 | P 0.008 ± 0.065 | D 0.218 ± 0.089 | M -0.212 ± 0.072 | V -0.042 ± 0.047
P46: N -0.263 ± 0.11 | Y -0.317 ± 0.11 | V -0.014 ± 0.064 | W -0.249 ± 0.069 | S -0.048 ± 0.054 | T -0.051 ± 0.076 | Q -0.27 ± 0.11

Variants of: B2
Experiment: as above
Details: Homo sapiens

Abundance fitness: each site, then its substitutions
L4: H -0.141 ± 0.053 | Q 0.047 ± 0.045 | W -0.068 ± 0.041 | C 0.016 ± 0.049 | E 0.024 ± 0.046 | D 0.035 ± 0.07 | S -0.026 ± 0.039 | G -0.03 ± 0.032 | K 0.109 ± 0.044 | Y -0.029 ± 0.062 | N -0.01 ± 0.047 | V -0.052 ± 0.035 | P -0.098 ± 0.046 | M 0.001 ± 0.042 | F -0.024 ± 0.065 | T 0.004 ± 0.04 | A -0.096 ± 0.043 | R 0.017 ± 0.029
E9: K 0.105 ± 0.057 | T 0.089 ± 0.045 | L 0.036 ± 0.033 | C 0.083 ± 0.052 | F -0.115 ± 0.071 | H -0.052 ± 0.075 | I -0.038 ± 0.065 | N 0.12 ± 0.063 | M 0.042 ± 0.042 | D -0.015 ± 0.077 | Q -0.017 ± 0.056 | P 0.074 ± 0.047 | Y -0.105 ± 0.072 | W 0.062 ± 0.041 | S 0.032 ± 0.036 | R 0.04 ± 0.032 | V 0.031 ± 0.035
G16: H -0.291 ± 0.072 | E -0.251 ± 0.05 | L -0.558 ± 0.05 | A -0.216 ± 0.037 | M -0.369 ± 0.08 | D -0.078 ± 0.064 | C -0.483 ± 0.12 | K -0.295 ± 0.055
Y15: E -0.067 ± 0.042 | V -0.208 ± 0.038 | D -0.055 ± 0.049 | G -0.096 ± 0.035 | W 0.008 ± 0.049 | M -0.009 ± 0.045 | L -0.164 ± 0.037 | R -0.152 ± 0.036 | P -0.134 ± 0.048 | Q -0.08 ± 0.046 | N 0.004 ± 0.067 | T -0.05 ± 0.046 | H -0.088 ± 0.08 | I -0.298 ± 0.084 | C -0.153 ± 0.06 | A -0.085 ± 0.041
V5: L -0.611 ± 0.064 | G -0.732 ± 0.076 | I -0.007 ± 0.051 | P -1.1 ± 0.23 | F -0.874 ± 0.24 | C -0.749 ± 0.15 | H -0.848 ± 0.33 | T -0.742 ± 0.11 | E -0.96 ± 0.18 | Y -0.631 ± 0.19 | N -0.703 ± 0.23 | S -1.03 ± 0.17 | R -0.669 ± 0.077 | W -0.952 ± 0.14 | M -0.681 ± 0.095 | K -1.15 ± 0.32
A10: S -0.079 ± 0.041 | V -0.305 ± 0.047 | R -0.453 ± 0.042 | K -0.408 ± 0.092 | L -0.066 ± 0.036 | H -0.235 ± 0.072 | N -0.274 ± 0.07 | G -0.122 ± 0.042 | Q -0.111 ± 0.05 | Y -0.272 ± 0.08 | W -0.625 ± 0.074 | C -0.147 ± 0.056 | I -0.15 ± 0.075 | T -0.161 ± 0.048 | E -0.287 ± 0.053 | D -0.251 ± 0.12 | P 0.004 ± 0.049 | F -0.362 ± 0.075
L2: I 0.114 ± 0.075 | G -0.017 ± 0.033 | H -0.002 ± 0.091 | M -0.024 ± 0.057 | Y 0.14 ± 0.065 | N 0.092 ± 0.14 | A 0.056 ± 0.035 | F 0.069 ± 0.058 | D -0.045 ± 0.066 | P -0.39 ± 0.068 | S -0.023 ± 0.037 | E 0.049 ± 0.037 | Q 0.029 ± 0.062 | V -0.02 ± 0.031 | R 0.032 ± 0.035 | C -0.068 ± 0.05 | K 0.063 ± 0.045
D8: E -0.033 ± 0.048 | S -0.034 ± 0.038 | A 0.037 ± 0.039 | V -0.219 ± 0.039 | Y -0.409 ± 0.084 | T -0.195 ± 0.056 | H -0.203 ± 0.094 | I -0.68 ± 0.2 | C -0.105 ± 0.072 | W -0.521 ± 0.064 | N -0.147 ± 0.089 | M -0.216 ± 0.067 | Q -0.035 ± 0.051 | L -0.646 ± 0.071 | R -0.237 ± 0.036 | K -0.27 ± 0.069
S7: I -0.725 ± 0.16 | H 0.021 ± 0.09 | P -0.757 ± 0.11 | A 0.098 ± 0.038 | N -0.111 ± 0.065 | W -0.115 ± 0.043 | G 0.012 ± 0.034 | C -0.046 ± 0.072 | M -0.06 ± 0.051 | Q 0.029 ± 0.046 | L -0.017 ± 0.037 | E 0.012 ± 0.042 | F -0.045 ± 0.076 | V -0.374 ± 0.046 | D 0 ± 0.053 | Y -0.109 ± 0.053 | T -0.02 ± 0.051 | K 0.032 ± 0.046 | R -0.048 ± 0.031
C6: I -0.751 ± 0.16 | W -1.03 ± 0.18 | E -0.941 ± 0.14 | L -0.992 ± 0.12 | A -0.964 ± 0.15 | P -0.931 ± 0.17 | Q -0.805 ± 0.16 | T -1.14 ± 0.24 | Y -0.653 ± 0.13 | S -1.22 ± 0.25 | G -0.934 ± 0.11 | K -1.01 ± 0.22 | V -1.06 ± 0.15 | R -0.852 ± 0.085
C13: K -0.018 ± 0.043 | E 0.04 ± 0.04 | G -0.154 ± 0.033 | F -0.005 ± 0.074 | A -0.02 ± 0.038 | P -0.07 ± 0.047 | Q 0.001 ± 0.049 | W -0.055 ± 0.041 | S -0.037 ± 0.037 | R -0.025 ± 0.031 | M -0.027 ± 0.038 | T 0.003 ± 0.038 | D -0.008 ± 0.069 | H 0.112 ± 0.061 | V 0.015 ± 0.035 | I 0.112 ± 0.064 | L -0.007 ± 0.034
H14: K -0.096 ± 0.049 | Y -0.068 ± 0.075 | Q -0.077 ± 0.048 | T -0.161 ± 0.049 | C -0.128 ± 0.068 | I -0.184 ± 0.069 | L -0.125 ± 0.034 | P -0.24 ± 0.056 | E -0.102 ± 0.041 | R -0.137 ± 0.032 | A -0.077 ± 0.035 | M -0.163 ± 0.049 | V -0.367 ± 0.042 | F -0.088 ± 0.11 | S -0.076 ± 0.039 | D -0.016 ± 0.057 | N -0.086 ± 0.093 | G -0.187 ± 0.031
K1: R -0.141 ± 0.043 | G -0.123 ± 0.047 | I -0.143 ± 0.1 | Q -0.293 ± 0.064 | T -0.324 ± 0.062 | N -0.12 ± 0.088 | C -0.14 ± 0.1 | W -0.301 ± 0.068 | H -0.304 ± 0.12 | L -0.236 ± 0.058 | E -0.048 ± 0.054 | Y -0.101 ± 0.083 | D -0.002 ± 0.083 | S -0.062 ± 0.063 | M 0.046 ± 0.046 | A -0.066 ± 0.055
S11: V -0.005 ± 0.037 | E 0.054 ± 0.044 | D 0.021 ± 0.049 | L 0.033 ± 0.036 | Y -0.174 ± 0.089 | A -0.043 ± 0.036 | P -0.096 ± 0.065 | N 0.018 ± 0.07 | Q 0.047 ± 0.053 | F -0.127 ± 0.088 | C -0.102 ± 0.07 | G -0.076 ± 0.036 | W -0.236 ± 0.05 | M -0.015 ± 0.049 | K -0.005 ± 0.045 | H 0.008 ± 0.064
C3: D -0.653 ± 0.33 | P -0.84 ± 0.26 | L -0.918 ± 0.11 | T -0.818 ± 0.22 | Y -0.764 ± 0.24 | K -0.823 ± 0.18 | H -0.737 ± 0.44 | S -0.728 ± 0.089 | V -1.13 ± 0.17 | E -0.787 ± 0.12 | W -0.879 ± 0.14 | Q -0.686 ± 0.16 | M -0.763 ± 0.15 | N -0.67 ± 0.27 | R -0.771 ± 0.081 | I -0.684 ± 0.2 | F -0.719 ± 0.29
G12: K -0.08 ± 0.047 | F -0.083 ± 0.071 | N -0.093 ± 0.071 | D -0.003 ± 0.058 | A -0.101 ± 0.041 | P -0.318 ± 0.07 | C -0.194 ± 0.078 | E -0.057 ± 0.044 | M -0.071 ± 0.042 | H -0.096 ± 0.11 | W -0.153 ± 0.053 | Q -0.034 ± 0.048 | L -0.166 ± 0.034 | Y -0.206 ± 0.065 | T -0.069 ± 0.048 | S -0.063 ± 0.04 | R -0.074 ± 0.034 | V -0.166 ± 0.035
